Laboratory results published in paper PMC6297349, “The ASCIZ-DYNLL1 axis promotes 53BP1-dependent non-homologous end joining and PARP inhibitor sensitivity” (Nature Communications, 2018).

Target: the molecule itself
Test: SEC; equal concentrations of TALON IMAC eluate fractionated over a Superdex S200 column (Supplementary Fig. 2a)

B1: Smt3-His6-tagged wild type 53BP1 fragment (amino acids 1131–1292) (domain or fragment, UniProt Q12888 1131-1292, looked up)
chain: GRSTNKENPSKALIERPSQNNIGIQTMECSLRVPETVSAATQTIKNVCEQGTSTVDQNFGKQDATVQTERGSGEKPVSAPGDDTESLHSQGEEEFDMPQPPHGHVLHRHMRTIREVRTLVTRVITDVYYVDGTEVERKVTEETEEPIVECQECETEVSPSQT
notes: No cleavage of the tags is described; the IMAC eluate went onto the Superdex S200 column; also called LC8-OD; source: E. coli BL21(DE3), pET-17b, purified (TALON IMAC column)
binding result: binds
